# Reference: US20200164032A1 (WASHINGTON UNIVERSITY, published 2020)
# T1: human CCL3 (human, UniProt P10147 23-92)
# T1 construct: also called hCCL3
# T1 sequence: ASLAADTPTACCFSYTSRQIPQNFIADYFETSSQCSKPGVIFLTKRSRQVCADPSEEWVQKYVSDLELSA
# T2: murine CCL11 (mouse, UniProt P48298 24-97)
# T2 sequence: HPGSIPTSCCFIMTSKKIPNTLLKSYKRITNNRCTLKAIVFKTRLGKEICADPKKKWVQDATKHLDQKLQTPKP
# T3: murine CCL4 (mouse, UniProt P14097 24-92)
# T3 construct: also called mCCL4
# T3 sequence: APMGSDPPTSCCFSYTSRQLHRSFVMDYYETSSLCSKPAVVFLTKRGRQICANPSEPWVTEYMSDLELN
# T4: murine XCL1 (lymphotactin) (mouse, UniProt P47993 22-114)
# T4 construct: also called mXCL1; lymphotactin (XCL1)
# T4 sequence: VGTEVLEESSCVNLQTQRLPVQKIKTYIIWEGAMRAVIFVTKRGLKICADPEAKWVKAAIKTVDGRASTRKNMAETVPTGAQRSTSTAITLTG
# T5: murine CCL19 (mouse, UniProt O70460 26-108)
# T5 construct: also called mCCL19
# T5 sequence: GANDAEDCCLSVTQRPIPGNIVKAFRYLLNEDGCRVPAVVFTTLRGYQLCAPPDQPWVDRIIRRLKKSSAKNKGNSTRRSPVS
# T6: murine CCL3 (mouse, UniProt P10855 24-92)
# T6 sequence: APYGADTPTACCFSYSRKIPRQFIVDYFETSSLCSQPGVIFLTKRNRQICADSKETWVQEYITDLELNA
# T7: murine CCL20 (mouse, UniProt O89093 28-97)
# T7 construct: also called mCCL20
# T7 sequence: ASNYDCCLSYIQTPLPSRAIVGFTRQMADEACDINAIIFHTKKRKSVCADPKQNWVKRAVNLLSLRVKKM
# T8: CCL9 (UniProt P51670 22-122)
# T8 sequence: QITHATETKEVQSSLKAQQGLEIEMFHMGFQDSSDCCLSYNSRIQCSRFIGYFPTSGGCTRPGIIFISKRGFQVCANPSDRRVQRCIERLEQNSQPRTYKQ
# T9: murine CCL8 (mouse, UniProt Q9Z121 24-97)
# T9 construct: also called mCCL8
# T9 sequence: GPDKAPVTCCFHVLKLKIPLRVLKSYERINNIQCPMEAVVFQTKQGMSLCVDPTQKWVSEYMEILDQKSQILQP
# T10: murine CCL12 (mouse, UniProt Q62401 23-104)
# T10 construct: also called mCCL12
# T10 sequence: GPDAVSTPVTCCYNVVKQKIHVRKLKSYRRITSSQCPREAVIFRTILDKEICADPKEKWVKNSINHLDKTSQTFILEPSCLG
# B1: R17 chemokine decoy receptor of Rodent herpesvirus Peru (RHVP), wild type, C-terminal 8-His fusion (receptor)
# chain: GPVGEPVASEINEASKVSSRLLTQDILFRKDRQATISLPIKLPVEDIITQTCDKITYGPLKFLDLLEKETAVLPLSTDITCPACLGRAVLVGKWECPAHVAVNESDLTVFGPNKEEHVPQFVTVQQPSDGKMQRLFFAKFLGTEESLAVLRVPGPDGHLCIQEALIHFKELSGAGVCSLWKANDSREEGLEMKQVDCLETTVLENQTCIATTLSKKIYHRLYCGERLMTGGQVSTRVLLTALGFYKRQPYTFHRVPKGMVYVHLIDSGSEDYMEYSECEEVTPGRYEDKQISYTFYTDLFQTADGEPVLASVWGTSGLKDSAYESCAFVIPTKGRRKLVPRRIMSKCYPFRLTYHPSTMTVRLDVRVEKHHGATDQGFVFLKMESGTYSEGREYYLDRVLWGEDSSTNNVLQ
# notes: not shown: C-terminal 8-His tag
# Legend:
# human CCL3 [1] = target: T1, human CCL3; test: SPR, R17 amine-coupled to CM5 chip
# murine CCL11 = target: T2, murine CCL11; test: SPR, R17 amine-coupled to CM5 chip
# murine CCL4 = target: T3, murine CCL4; test: SPR, R17 amine-coupled to CM5 chip
# murine CCL5 = target: T11, murine CCL5 (mouse, UniProt P30882 24-91); test: SPR, R17 amine-coupled to CM5 chip
# T11 construct: also called mCCL5
# T11 sequence (P30882 24-91 limits assumed): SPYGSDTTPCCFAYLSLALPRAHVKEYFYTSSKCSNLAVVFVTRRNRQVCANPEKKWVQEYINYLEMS
# [2] = target: T4, murine XCL1 (lymphotactin); test: SPR, R17 amine-coupled to CM5 chip
# murine CCL19 = target: T5, murine CCL19; test: SPR, R17 amine-coupled to CM5 chip
# murine CCL3 = target: T6, murine CCL3
# [3] = target: CCL2 (species not given); test: SPR, R17 variant on CM5 chip; column KD (nM), kinetic
# [4] = target: CCL2 (species not given); test: SPR, R17 variant on CM5 chip; column ka x 10^6 M-1s-1
# human CCL3 [5] = target: T1, human CCL3; test: SPR saturation binding (KD,eq), R17 on CM5 chip
# human CCL2 [6] = target: T12, human CCL2 (human, UniProt P13500 24-99); test: SPR saturation binding (KD,eq), R17 on CM5 chip
# T12 construct: also called hCCL2
# T12 sequence (P13500 24-99 limits assumed): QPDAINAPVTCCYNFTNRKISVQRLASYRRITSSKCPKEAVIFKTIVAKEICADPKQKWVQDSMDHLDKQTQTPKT
# [7] = target: CCL2 (species not given); test: SPR, R17 variant on CM5 chip; column KDeq (nM)
# murine CCL20 [8] = target: T7, murine CCL20; test: SPR, R17 on CM5 chip; KD,kin = kd/ka from the global fit
# CCL9 [9] = target: T8, CCL9; test: as above
# human CCL2 [10] = target: T12, human CCL2; test: as above
# murine CCL8 [11] = target: T9, murine CCL8; test: as above
# murine CCL2 [12] = target: T13, murine CCL2 (mouse, UniProt P10148 24-148); test: as above
# T13 construct: also called mCCL2
# T13 sequence (P10148 24-148 limits assumed): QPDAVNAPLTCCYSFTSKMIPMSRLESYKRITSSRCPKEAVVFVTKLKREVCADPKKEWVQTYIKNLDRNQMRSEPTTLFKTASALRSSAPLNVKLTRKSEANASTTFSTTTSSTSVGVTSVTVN
# murine CCL12 [13] = target: T10, murine CCL12; test: as above
# murine CCL20 [14] = target: T7, murine CCL20; test: SPR, R17 on CM5 chip, chemokine injected; global 1:1 mass transport fit
# CCL9 [15] = target: T8, CCL9; test: as above
# human CCL2 [16] = target: T12, human CCL2; test: as above
# murine CCL8 [17] = target: T9, murine CCL8; test: as above
# murine CCL2 [18] = target: T13, murine CCL2; test: as above
# murine CCL12 [19] = target: T10, murine CCL12; test: as above
binder,measurement,setting,value
B1,dissociation time of the complex,human CCL3 [1],> 10 min
same,binding result,murine CCL11,binds
same,dissociation time of the complex,murine CCL4,> 10 min
same,dissociation time of the complex,murine CCL5,> 10 min
same,dissociation time of the complex,[2],> 10 min
same,binding result,murine CCL19,binds
same,Kd,murine CCL3,1.4 nM
same,Kd,[3],6.7 nM
same,kon,[4],2e+06 M⁻¹ s⁻¹
same,Kd,human CCL3 [5],1.4 nM
same,Kd,human CCL2 [6],12 nM
same,Kd,[7],10 nM
same,Kd,murine CCL20 [8],4.7 nM
same,Kd,CCL9 [9],4.5 nM
same,Kd,human CCL2 [10],7.5 nM
same,Kd,murine CCL8 [11],76 nM
same,Kd,murine CCL2 [12],6.7 nM
same,Kd,murine CCL12 [13],1.1 nM
same,koff,murine CCL20 [14],0.031 s⁻¹
same,kon,murine CCL20 [14],6.5e+06 M⁻¹ s⁻¹
same,koff,CCL9 [15],0.01 s⁻¹
same,kon,CCL9 [15],3.6e+06 M⁻¹ s⁻¹
same,koff,human CCL2 [16],0.012 s⁻¹
same,kon,human CCL2 [16],1e+06 M⁻¹ s⁻¹
same,koff,murine CCL8 [17],0.1 s⁻¹
same,kon,murine CCL8 [17],1.3e+06 M⁻¹ s⁻¹
same,koff,murine CCL2 [18],0.02 s⁻¹
same,kon,murine CCL2 [18],2e+06 M⁻¹ s⁻¹
same,koff,murine CCL12 [19],0.01 s⁻¹
same,kon,murine CCL12 [19],8.9e+06 M⁻¹ s⁻¹
